Measurements taken from a protein production outcome set (Wang et al. 2014).

Test: label from the status in PepcDB records

Row | Sequence | protein production
1 | MGIENFTAKIVGLSIVSLLVVLMFLYKLIYIIPLIFIVLLVFQSEKKIFAFLSKNTKQIQPYSIEDGVFYNEKNASAVLIIDDIQMDYKDFTNSNLRSFISSFHKILDIAKDINIVLKRESLDKNVYIESLSQKIQALRIMIDSDPSNEKAKRKLELMETIISRIESGENPFRYEMYIIINSRDKNSALSTASMIRQGLEGLGIKTRLATLHEIQKLVRDFFHSKLNLNKIALPTQIPYLTPISVEKKPKSSIIIDGVLLGKDINNNGLVFWNITKSQNSHLLIVGPTGSGKTEFLIWLSTILNLIYGGTVILFDVKGDIKYRLSMYKVPFQLINPLFYRLGLLDEYDIPIRIKLLQIEKILLNSFRLSKFNSSILYNYLNRLIDISYLKYRIKWKDLEKYLSEIDDVQLKYYLSKLINILSSMEDSELPPLLHGVNENEINLIDLTLIKSEEIKRLIIYTLIQELYNKFSLEKIYDKPRVFLVLDEAWTILKNESEDYPIVADLIKRGRGYGISIIMATQNLEDLGDLANIYLDNIGVSVFMNNGDKKFWEEIRRFVNVDNDTLSNNLIFMNRGEALVRFLGDPRPVIIKLNTLAGSSF | failed
2 | MGASTFWIITIVFCIAIYFLDKFLRKKLNMPKGGFWGYKKHVNSLHKKLEIGLLFIYLITSFIFIFKFESINIAYVIFTYLGGTLILRALMEWKYDRESKEYIFSVIGVFTFIFMTSILFYFFPPAV | failed
3 | MTCDQIPGRMRVKAERTPFRCPTPVKRKKAMSSAMPQPETTPILACTVSRDVQNFDLLIEDMEAAMGESWGDLGFAEALAFFGQPESESLEFIALAIDTEDEDNLVLMGEIITQAKSRGIKVILIAEDVTPASLHQLLRKGADEFVPYPLPERELQSAIDRMSKPEPEQAQTHHNTAHLNKGAAREGALIVVHGLAGGTGSTTMAVNLAWELANIGGEDAPSVCLMDLDLQHGSVSTYLDLPRREAVFEMLSETQSMDEEVFGQALLSFEDKLQVLTAPSDMVPLDILSPEDIQRVIEMARAHFDYVIVDMPKTLVQWSETILQAAHVYFAMIELDMRSAQNALRMKRALQSEDLPFNKLRFALNKAPKFTDLSGKSRVKRMGESLGISIDLQLPDGGKQVTQGADHGLPLATSAPKNPLRREIAKLAQSLHELGRSDAKAA | failed
4 | MSENKKKFDKKGAKNMDEISKTLFAPIYPIIAENIINRFGITAGTCIDIGSGPGALSIALAKQSDFSIRALDFSKHMNEIALKNIADANLNDRIQIVQGDVHNIPIEDNYADLIVSRGSVFFWEDVATAFREIYRILKSGGKTYIGGGFGNKELRDSISAEMIRKNPDWKEFNRKNISQENVERFQNVLDEIGISSYEIILGDEGFWIIISKTDQEVI | not failed
5 | MSLSRSEEMHRLTENVYKTIMEQFNPSLRNFIAMGKNYEKALAGVTYAAKGYFDALVKMGELASESQGSKELGDVLFQMAEVHRQIQNQLEEMLKSFHNELLTQLEQKVELDSRYLSAALKKYQTEQRSKGDALDKCQAELKKLRKKSQGSKNPQKYSDKELQYIDAISNKQGELENYVSDGYKTALTEERRRFCFLVEKQCAVAKNSAAYHSKGKELLAQKLPLWQQA | not failed
6 | NFSNRVQDVIRLSREEALRLGHDYIGTEHLLLGLIREGEGIGAKILKNLKVDLFQLKQKIEENTHPKVPATQMGNVPLTKQAEKVLKITYLEAKICKSTIIGTEHLLLSILKGDDNIAAQILEQFGVTYDQVRDELMTITT | not failed
7 | MLICNDKSNPKTLLEEIMALRPWRKGPFEISQIKIDSEWDSSIKWDLVKNATPLKDKVVADVGCNNGYYLFKMLEHGPKSLVGFDPGVLVKKQFEFLAPFFDKEKKIIYESLGVEDLHEKYPNAFDVIFCLGVLYHRKSPLEALKALYHALKIKGELVLDTLIIDSPLDIALCPKKTYAKMKNVYFIPSVSALKGWCERVGFENFEILSVLKTTPKEQRKTDFILGQSLEDFLDKTDPSKTLEGYDAPLRGYFKMLK | failed
8 | MNIVYLLMLSLILFSIGLYGISTSNVGIKMLISLEIIINSAILAGVSISSFYFSTGVLIFVLFAIAIGVIESAVGIAILTMVYKKYGRITISLLKEIKW | failed
9 | MSLVMSGEKMKVIIVEDEFLAQQELSWLINTHSQMEIVGSFDDGLDVLKFLQHNKVDAIFLDINIPSLDGVLLAQNISQFAHKPFIVFITAWKEHAVEAFELEAFDYILKPYQESRIINMLQKLTTAWEQQNNAAEGHHHHHH | not failed
10 | MRMQRQGCVQAQIAGQSGMLTYWDNRRDMPMIASHRWTALFVLVILMPLPAFAGTPEGGYRQPPEPLLSVMRAPLNPSPRPDPTGRTLLLVQRTQYPPIARVAEPYLKLAGVRVEPRTHSRHDMSNGYGIRSCLEGFSLVDIASGKQTAVSLPAGACPALPVWSPDGRRFAFNNTAADHVELWVGDVATGQVRKIDGVQLNPVLGGEIQWLGGSSTLLLKTVPQDLGPAPRKAAVPPGPEVKETIQGKGESSTYEARDTLSSPQDEALFTYYATAQLLTVDAATGSQRKLGTPAVYSNVDGAPDGRHVLVERLKPPYSYVTTYARFAHDVAVLDLETGNERVLANLPVADRVPVQGVPTGPRAYAWRANQPATLVWAEALDGGDWKTSVPARDTLMTLAAPFTAKPRALARVQQRYAGLSWFAEGGQALLDEYDENRHWRRTTLVDADRPGAGERVLFDLSTDDLYADPGLPEMRVLANGQAVLREAQGALFLSGQGASPAGDRPFLDRYTLATGKSQRLFRSDAHVDEVFFGFAGDETSRLLTWHQSLTDPPNVYVRTLGEPLPAPAAGEAAFASTATPVTHFADPTPLVRQIKKRLVSYKRKDGVDLSFTLYTPPGYKEGTRVPAILYAYPLDYADPSKAGQVSGASERDFTRLNYYQLLLLAGYAIIDDAAFPIVGDPKTAYDTYLQQLVDDATAAVDKAVELGVVDRQRIGVTGHSHGALMTANLLAHTDLFRAGAATSGSYNKTLTPFGFQSERRSFWKAPDVYAQASAFFHADKINEPLLIVHGMDDANPGTETTQAPRLFQAIRGNGGTARLVLLPFEPHWYSARESNEDLVAEMLEWFDRYVKNAPPRDAQHANDVR | failed
11 | MKELNDIEVTCVSGGTLSGMIVGAVDGAATGMAIGGKWGGAGGFGFGALSQLVGLIVPTAMGAIAGGTVGLFTNAETAVGYLGQYRENFGPGDVGRTTI | failed
12 | MYNSATVIYQNLLKSTPKKASEYYYYLGDICWRKEKTDSAKYYFMEGIKTDETYAMNYVGIGIITMKSNATEGQRSFDKALQMTSQKNSQVLNAIGEYYILEADKAELPKGIALLKKSTEIDAKNAMSWILLGDAYGKQAEGSKQAESYGKAANLFHSVPLLKMKYGKMYAAARNKDLSIKYYNEGLAADPTYGPIYRELGDLYNRFRQYDLAIQNYKKYLTYIDSNDDVEFRYADFLFKNNNYAEAIEVFNKLEAKKYNSPYIYNRRAVCYYELAKYDLAQKDIETYFSKVNATKAKSADFEYYGKILMKKGQDSLAIQQYQAAVDRDTTRLDMYGQIGSYFYNKGNFPLAIQYMSKQIRPTTTDPKVFYELGQAYYYNKEYVKADSSFVKVLELKPNIYIGYLWRARANAAQDPDTKQGLAKPYYEKLIEVCAPGGAKYKDELIEANEYIAYYYTINRDKVKADAAWKNILALDPTNKKAIDGLKMK | failed
13 | MGISTNHTTFDGLSFKTFLENLASLLHEKPLSTPPCNDRTLLKARDPPSVAFPHHELVKFQDCETTTVFEATSEHLDFKIFKLSSEQIKKLKERASETSNGNVRVTGFNVVTALVWRCKALSVAAEEGEETNLERESTILYAVDIRGRLNPELPPSYTGNAVLTAYAKEKCKALLEEPFGRIVEMVGEGSKRITDEYARSAIDWGELYKGFPHGEVLVSSWWKLGFAEVEYPWGKPKYSCPVVYHRKDIVLLFPDIDGDSKGVYVLAALPSKEMSKFQHWFEDTLC | failed
14 | METLSVIHTVANRLRELNPDMDIHISSTDAKVYIPTGQQVTVLIHYCGSVFAEPENTDATVQKQLIRISATVIVPQISDAINALDRLRRSLGGIELPDCDRPLWLESEKYIGDAANFCRYALDMTASTLFIAEQESKDSPLLTIVNYEEIQ | not failed
15 | MGNKLVNSLSKITTSSKEVTSDILVMNFTIVNAFLIGNKTQWVLVDTALENSADFILKAAEKRFGKGSVPKAIILTHGHFDHVGSVIKLSKLWSVPVYIHELEMPYVTGKKDYPLADPTVDEGMVAKISQTFPHTSIDISSNVSPLPSDSSIPYMPDWKWIHTPGHTDGHISLFREKDHVLIVGDAFCTTKQESLLSVITHHEEISGPPKYLTTDWAKAKNSIICLKNLKPLIAIPSHGEELSGEELTKHLELLINNFDEIAKPAEGQFVTNK | failed
